Experimental findings from patent US20190307907A1, “MOLECULAR SENSOR FOR NMR/MRI BASED ON ANALYTE-DEPENDENT SPECTRAL CHANGES OF TEMPORARILY ENCAPSULATED HYPERPOLARIZED 129XE” (KLINIKUM RECHTS DER ISAR DER TECHNISCHEN UNIVERSITÄT MÜNCHEN, priority 2016, published 2019) are described below.

Where no end group is shown, it is not given here. Cr‑A = cryptophane A cage on the Lys side chain; 5‑Fluo‑M = fluorescein maleimide

For data set [1], the target named is T1, calmodulin (Homo sapiens, UniProt P0DP23). The data set is described as follows: Hyper-CEST spectra of cryptophane-conjugated peptides with calmodulin in absence and presence of calcium (FIG. 5). The settings on record: peptide 1 μM, calmodulin 3 μM, MOPS; for Ca2+-dependent CEST unsuppression / signal change on calmodulin binding: calcium up to 100 μM; for CEST suppression (baseline, absence of calcium): no calcium, hyperpolarized 129Xe, 9.4 T. In kind it is biochemical. As to the method: Hyperpolarized Xenon was bubbled into buffered (MOPS) solutions containing different cryptophane bearing peptides indicated in the respective subfigures (1 μM) and calmodulin (3 μM) in the absence and presence of 100 μM calcium and CEST spectra were obtained on a 9.4 T Bruker AV 400 wide bore NMR spectrometer. (E) Effects of C-terminal portion of RS20 on the NMR-signal modulation. Replacement of the maleimide-Fluorescein by a maleimide capping group (NEM) partially unsuppresses the CEST effect.
However, the CEST suppression and Ca^2+-mediated unsuppression is weaker if the cryptophane cage is attached at the third lysine (@K3, FIG. 5B). […] (FIG. 5C).
(§1) The production, delivery and application of hyperpolarized Xe for NMR and MRI studies has been described previously including a full list of materials (Witte et al., 2012; Witte et al., 2014). Typically, hyperpolarized ^129Xe (20% polarization and more) is generated by spin exchange optical pumping using a 150 W continuous wave laser (795 nm, 0.5 nm bandwidth) in a custom-designed continuous flow setup at 4.5 bar absolute pressure using a gas mixture of 5% Xe (26.4% natural abundance of ^129Xe), 10% N2, and 85% He.
Experiments benefit from high field MRI scanners because of the increased spectral resolution for resolving the CEST response. As an example, a 9.4 T NMR spectrometer can be used for the NMR experiments. It requires gradient coils for MR imaging and a variable temperature unit for adjusting the sample temperature. A 10 mm inner-diameter double resonant probe (^129Xe (110 MHz) and ^iH (400 MHz)), can be used for excitation and detection.
The freshly hyperpolarized xenon gas mix is directly bubbled into solution for ca. 15 seconds at a total flow rate of 0.1 SLM followed by a 1 s delay (to allow possible remaining bubbles to collapse) before signal acquisition. To reduce foaming, 0.1% of Pluronic® L81 may be added to the sample. After bubbling, a saturation RF pulse is irradiated at the desired frequency and the signal of free Xe in solution is observed. ^129Xe Hyper-CEST MR images can be acquired using averages of a RARE sequence with a slice-selective 90° gaussian shaped excitation pulse and high RARE factor (up to 32 for a 32×32 matrix size) due to sufficiently slow T2 relaxation. Two images are acquired, one with an off-resonant saturation pulse for control and one with an on-resonant saturation pulse to induce signal loss in the vicinity of the sensor. Hyper-CEST MR images are obtained by a pixel-wise subtraction of the noise corrected off- and on-resonant images. All data analysis was performed with MATLAB®.

Data set [2] can be described thus: Circular dichroism and CEST spectra at different trifluoroethanol (TFE) concentrations (FIG. 12). It is filed as physicochemical. The following applies: for CEST signal in TFE: 20% and 50% TFE; for CEST signal in TFE / CEST signal in water: without Ca2+ or CaM; for helicity of the peptide moiety (CD spectra): different concentrations of TFE. From the text:
FIG. 12: Spectroscopic changes upon conformational change.
(In general: Circular dichroism is widely used to follow secondary structure.)

Data set [3] concerns the target T1, calmodulin. The data set is described as follows: Hyper-CEST calcium titration, binding curves of cryptophane-peptide sensors with calmodulin. The following applies: from CEST binding curves; 2 μM calmodulin; free calcium 0 to 39 μM; MOPS buffer; read-out: apparent dissociation constant. The protocol: (A) CEST spectra from M13 with a cryptophane Cage and also harboring a fluorescein (G-K(Cr-A)-[…]-C(5-Fluo-M)-amid) where Cr-A denotes the cryptophane A cage attached on the lysine residue and 5-Fluo-M a fluorescein attached to a cysteine) in the presence of 2 μM calmodulin and in response to free calcium concentrations ranging from 0 to 39 μM (MOPS buffer) (B) CEST spectra from RS20 (GRR-K(Cr-A)-WQKTGHAVRAIGRLSSS-C(5-Fluo-M)-amid; same annotation of modifications as in (A)) plotted analogously as in (A). (C) Corresponding binding curves yielding an apparent dissociation constant of 0.91 μM and 1 μM for M13 and RS20 respectively.
as §1
Experiments benefit from high field MRI scanners because of the increased spectral resolution for resolving the CEST response. As an example, a 9.4 T NMR spectrometer can be used for the NMR experiments. […]

Data set [4] deals with lysates obtained from HEK293 cells. The data set is described as follows: Functionality of the sensor in cell lysates (FIG. 13). In kind it is biochemical. The following applies: for sensor response on addition of saturating calcium: HEK293 lysate with CaM, saturating amounts of calcium; for sensor response on addition of just CaM: HEK293 lysate, calcium already present in the lysate. The protocol:
FIG. 13: Functionality of the sensor in cell lysates. The sensor M13-based sensor (blue) and RS20-based sensor (red) were added to lysates obtained from HEK293 cells.

The test system of a further data set is HEK293 cells. The data set is described as follows: Cellular uptake of cage-conjugated peptides, confocal microscopy and FACS (FIG. 8). It is filed as cell-based. The following applies: 25 μM, 20 minutes. As to the method:
(A) Cage-conjugated peptides that were also labeled with fluorescein (25 μM) were incubated on HEK293 cells for 20 minutes followed by confocal microscopy imaging (nuclear counterstain with DAPI). (B) Analysis of FACS experiments with cells incubated with different peptides modified with cryptophane cages and fluorescein indicating labeling of the cells with the fluorescent peptides (sequences as indicated in FIG. 2; @K# indicates the lysine residue number used for conjugation of the cryptophane cage). […] The cellular uptake of similar EF-protein-binding peptides is likely due to their high scores on prediction tools for cell-penetration such as CPPpred or CellPPD.

As to “ARKEVIRNKIRAIGK-CrytophaneCage-MARVFSVLR [calcineurin A peptide]”, the “Ca2+-dependent CEST unsuppression / signal change on calmodulin binding” value in the data set with calmodulin [1] (listed as cage-conjugated calcineurin) is recorded as “does not exhibit a change in the CEST effect”. Moreover, in the data set with calmodulin [1], the “CEST suppression (baseline, absence of calcium)” value was “neither show a suppression”.

As for “G-K(Cr-A)-RRWKKNFIAVSAANRFKKISSSGAL-C(5-Fluo-M)-amid (GKRRWKKNFIAVSAANRFKKISSSGALC; cryptophane A on Lys; fluorescein on Cys; amide; Cr-A@K1_M13_Fluorescein)”, in data set [2], the “CEST signal in TFE” value was “turned on”, the “helicity of the peptide moiety (CD spectra)” value is “increase of the helicity” and the “CEST signal in water” value is recorded as “no CEST signal”. Moreover, the Kd with calmodulin [3] was 910 nM. Also, in data set [4], the “sensor response on addition of saturating calcium” value is recorded as “stronger response” and the “sensor response on addition of just CaM” value was “turned on the sensor”.

As to “GRR-K(Cr-A)-WQKTGHAVRAIGRLSSS-C(5-Fluo-M)-amid (GRRK(Cr‑A)WQKTGHAVRAIGRLSSSC(5‑Fluo‑M)-NH2) [Cr-A@K1_RS20_Fluorescein]”, in the data set with calmodulin [1], the “Ca2+-dependent CEST unsuppression / signal change on calmodulin binding” value was “strong, Ca^2+-dependent CEST unsuppression” and the “CEST suppression (baseline, absence of calcium)” value was “complete CEST suppression”. In addition, in data set [2], the “CEST signal in TFE” value is recorded as “turned on”, the “helicity of the peptide moiety (CD spectra)” value is given as “increase of the helicity” and the “CEST signal in water” value is “no CEST signal”. Further, the Kd with calmodulin [3] worked out at 1000 nM. For the same substance, in data set [4], the “sensor response on addition of saturating calcium” value is “stronger response” and the “sensor response on addition of just CaM” value is “turned on the sensor”. In addition, the “cellular uptake (confocal microscopy)” value in the data set with HEK293 cells is on record as “uptake”.

With “GRRKWQK(Cr-A)-TGHAVRAIGRLSSS-C(5-Fluo-M)-amid (GRRKWQK(Cr‑A)TGHAVRAIGRLSSSC(5‑Fluo‑M)-NH2) [Cr-A@K3_RS20_Fluorescein, RS20 peptide with cryptophane A shifted three amino acids toward the center, C-terminal fluorescein]”, in the data set with calmodulin [1] (listed as @K3), the “Ca2+-dependent CEST unsuppression / signal change on calmodulin binding” value was “weaker” and the “CEST suppression (baseline, absence of calcium)” value is “weaker”. In the data set with calmodulin [1] (listed as RS20-cage@K2), the “Ca2+-dependent CEST unsuppression / signal change on calmodulin binding” value is reported as “diminishes” and the “CEST suppression (baseline, absence of calcium)” value is given as “diminishes the CEST suppression”.
